Experimental findings from US20200239517A1 are described below.

Assay [1] concerns the target human polyclonal IgG (Gammanorm) (human). In words: SPR; ratio to reference Zvar4 after 0.5M NaOH cycles.
Assay [2] shares this target. In words: SPR, ligand on chip; IgG signal left after 1M NaOH cycles.
Assay [3] shares this target. The assay can be described thus: SPR; ratio to reference Zvar4 after 1M NaOH cycles.
Assay [4] has the same target. The assay can be described thus: SPR, ligand on chip; IgG signal left after 0.5M NaOH cycles.
Assay [5] has the same target. The assay can be described thus: SPR; ratio to reference Zvar1 after 0.5M NaOH cycles.
The target is the same in assay [6]. In words: SPR; ratio to reference Zvar6 after 0.5M NaOH cycles.
For assay [7], the target named is IgG1 monoclonal antibody (probe molecule of Example 1). In words: Biacore SPR, ligand on CM5 chip, IgG1 mAb as probe.

In the case of “Zvar(Q9A, N11E, N28A, N43A)4 (designed binder)”, in assay [1], the Capacity relative to ref. 100 cycles is 1.19, the Capacity relative to ref. 200 cycles came to 1.72 and the Capacity relative to ref. 300 cycles stood at 2.62. This substance also yielded a Remaining capacity 100 cycles (%) in assay [2] of 55%. Besides, the Capacity relative to ref. 100 cycles in assay [3] was 2.04. In assay [4], this substance gave a Remaining capacity 100 cycles (%) of 80%, a Remaining capacity 200 cycles (%) of 62% and a Remaining capacity 300 cycles (%) of 42%.
Take “Zvar(Q9A, N11E, N28A, Q40V, A42K, N43A, L44I)1 (designed binder)”: the Capacity relative to reference in assay [5] was 1.35. The substance further displayed a Capacity after 96-100 cycles in assay [4] of 65%.
For “Zvar(Q9A, N11E, Q40V, A42K, N43A, L44I)6 (designed binder)”, the Capacity relative to ref. 100 cycles in assay [6] was found to be 1.3. Further, in assay [4], the Remaining capacity 100 cycles (%) was found to be 87%.
Regarding “Zvar(Q9A, N11E, D37E, Q40V, A42R, N43A, L44I)4 (designed binder)”, in assay [1], the Capacity relative to ref. 100 cycles was 1.17. For the same substance, in assay [4], the Remaining capacity 100 cycles (%) was 84%.
The like results for “Zvar(Q9A, N11E, D37E, Q40V, A42K, N43A, L44I)4 (designed binder)” were, in that order, 1.13 and 81%.
On to “parental B domain of Protein A (from UniProt A0A0H3K686 212-269)”, for which the Reference capacity after 96-100 cycles in assay [4] was 35%.
For “Zvar(Q9A, N11E, N43A)4 (designed binder)”, in assay [1], the Capacity relative to ref. 100 cycles is 1.21, the Capacity relative to ref. 200 cycles came to 1.72 and the Capacity relative to ref. 300 cycles was 2.56. In assay [4], this substance showed a Remaining capacity 100 cycles (%) of 81%, a Remaining capacity 200 cycles (%) of 62% and a Remaining capacity 300 cycles (%) of 41%.
As for “Zvar(N11E, Q32E, K50R)1 (designed binder)”, the Capacity relative to reference in assay [5] was 1.04. Moreover, in assay [4], the Capacity after 96-100 cycles is 53%.
For the substance “Zvar(Q9A, N11K, H18K, D37E, A42R, N43A, L44I, K50R)1 (designed binder)”, in assay [5], the Capacity relative to reference amounted to 1.49. Also, the Capacity after 96-100 cycles in assay [4] was 67%.
Turning to “Zvar(Q9A, N11E, Q40V, A42K, N43A, L44I)1 (designed binder)”, in assay [7], the Kd was determined as 1.07 nM, the koff came out at 0.000437 s⁻¹ and the kon worked out at 410000 M⁻¹ s⁻¹. Also, in assay [5], the Capacity relative to reference is 1.4. The Capacity after 96-100 cycles in assay [4] was found to be 66%.
Consider “Zvar(N11K, H18K, D37E, A42R, N43A, L44I)1 (designed binder)”, for which the Capacity relative to reference in assay [5] turned out to be 1.31. In addition, the Capacity after 96-100 cycles in assay [4] was determined as 59%.
Consider “Zvar(Q9A, N11E, Q40V, A42K, N43A, L44I)4 (designed binder)”, for which, in assay [1], the Capacity relative to ref. 100 cycles is 1.34, the Capacity relative to ref. 200 cycles was determined as 2.06 and the Capacity relative to ref. 300 cycles was determined as 3.56. The Remaining capacity 100 cycles (%) in assay [2] was 56%. For the same substance, in assay [3], the Capacity relative to ref. 100 cycles is 2.07. In assay [4], this substance gave a Remaining capacity 100 cycles (%) of 90%, a Remaining capacity 200 cycles (%) of 74% and a Remaining capacity 300 cycles (%) of 57%.
For the substance “Zvar(Q9A, N11K, H18K, S33K, D37E, A42R, N43A, L44I, K50R, L51Y)1 (designed binder)”, in assay [5], the Capacity relative to reference worked out at 1.28. In assay [4], this substance showed a Capacity after 96-100 cycles of 59%.
For “Zvar(N11K, H18K, S33K, D37E, A42R, N43A, L44I, K50R, L51Y)1 (designed binder)”, the Capacity relative to reference in assay [5] came out at 1.46. Moreover, the Capacity after 96-100 cycles in assay [4] is 67%.
Turning to “Zvar(Q9A, N11K, H18K, D37E, A42R, N43A, L44I)1 (designed binder)”, in assay [5], the Capacity relative to reference worked out at 1.4. The same substance returned a Capacity after 96-100 cycles in assay [4] of 63%.
For “Zvar(Q9A, N11E, N28A, Q40V, A42K, N43A, L44I)4 (designed binder)”, the Capacity relative to ref. 100 cycles in assay [1] was 1.24. Further, in assay [4], the Remaining capacity 100 cycles (%) amounted to 84%.
Turning to “Zvar(Q9A, N11E, Q40V, A42K, N43E, L44I)4 (designed binder)”, in assay [1], the Capacity relative to ref. 100 cycles worked out at 1.25, the Capacity relative to ref. 200 cycles turned out to be 1.81 and the Capacity relative to ref. 300 cycles stood at 3. Moreover, in assay [2], the Remaining capacity 100 cycles (%) is 54%. Also, the Capacity relative to ref. 100 cycles in assay [3] stood at 2. Further, in assay [4], the Remaining capacity 100 cycles (%) turned out to be 84%, the Remaining capacity 200 cycles (%) was 65% and the Remaining capacity 300 cycles (%) came to 48%.
Take “parental C domain of Protein A (from UniProt A0A0H3K686 270-327)”: the Reference capacity after 96-100 cycles in assay [4] worked out at 49%.
